T1: LHK-Exo (Laribacter hongkongensis HLHK9, UniProt C1D7P6 1-203)
T1 sequence: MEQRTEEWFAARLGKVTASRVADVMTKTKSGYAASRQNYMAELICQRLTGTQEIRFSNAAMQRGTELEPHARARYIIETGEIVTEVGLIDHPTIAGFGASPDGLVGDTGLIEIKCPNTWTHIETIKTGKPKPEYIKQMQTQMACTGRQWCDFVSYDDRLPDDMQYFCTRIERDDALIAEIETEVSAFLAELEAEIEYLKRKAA

B1: 5'-PO4-(dT)5 (ssDNA)
DNA: TTTTT
modifications: 5'-phosphate
B2: LHK-Exo (alkaline exonuclease from Laribacter hongkongensis HLHK9, LHK_01497) (enzyme, UniProt C1D7P6 1-203, looked up)
chain: MEQRTEEWFAARLGKVTASRVADVMTKTKSGYAASRQNYMAELICQRLTGTQEIRFSNAAMQRGTELEPHARARYIIETGEIVTEVGLIDHPTIAGFGASPDGLVGDTGLIEIKCPNTWTHIETIKTGKPKPEYIKQMQTQMACTGRQWCDFVSYDDRLPDDMQYFCTRIERDDALIAEIETEVSAFLAELEAEIEYLKRKAA

What was measured:
LHK-Exo = target: T1, LHK-Exo; assay: X-ray crystallography
AUC = target: the molecule itself; assay: AUC

Row | Binder | binding result (LHK-Exo) | stoichiometry N (AUC)
1 | B1 | binds | 
2 | B2 |  | 3
